# Reference: article PMC4714889, “Dissecting the Molecular Mechanism of Nucleotide-Dependent Activation of the KtrAB K^+ Transporter” (PLoS Biology, 2016)
# B1: KtrAΔC, C-terminal domain truncated KtrA (tandem of two N-terminal KtrA domains) (domain or fragment, Bacillus subtilis)
# chain: MGRIKNKQFAVIGLGRFGGSICKELHRMGHEVLAVDINEEKVNAYASYATHAVIANATEENELLSLGIRNFEYVIVAIGANIQASTLTTLLLKELDIPNIWVKAQNYYHHKVLEKIGADRIIHPEKDMGVKIAQSLSDENVLNYLEGSKQFAVIGLGRFGGSICKELHRMGHEVLAVDINEEKVNAYASYATHAVIANATEENELLSLGIRNFEYVIVAIGANIQASTLTTLLLKELDIPNIWVKAQNYYHHKVLEKIGADRIIHPEKDMGVKIAQSLSDENVLNY
# notes: KtrA N-terminal domain, Bacillus subtilis, GenBank KIX81590.1, residues 1-144 (first copy of the tandem); linker between the two N-terminal domains; KtrA N-terminal domain, Bacillus subtilis, GenBank KIX81590.1, residues 7-144 (second copy of the tandem); Lacks KtrA residues 145-222 (the whole C-terminal domain); Forms an octameric ring counted in N-terminal domains; each chain carries two of …
# B2: KtrB (wild type), membrane protein of the KtrAB K+ transporter from Bacillus subtilis (natural protein)
# chain: MTLQKDKVIKWVRFTPPQVLAIGFFLTIIIGAVLLMLPISTTKPLSWIDALFTAASATTVTGLAVVDTGTQFTVFGQTVIMGLIQIGGLGFMTFAVLIVMILGKKIGLKERMLVQEALNQPTIGGVIGLVKVLFLFSISIELIAALILSIRLVPQYGWSSGLFASLFHAISAFNNAGFSLWPDNLMSYVGDPTVNLVITFLFITGGIGFTVLFDVMKNRRFKTFSLHTKLMLTGTLMLNAIAMLTVFILEYSNPGTLGHLHIVDKLWASYFQAVTPRTAGFNSLDFGSMREGTIVFTLLLMFIGAGSASTASGIKLTTFIVILTSVIAYLRGKKETVIFRRSIKYPIIIKALAVSVTSLFIVFLGIFALTITEQAPFLQIVFETFSAFGTVGLTMGLTPELTTAGKCIIIVIMFIGRIGPLTFVFSFAKTEQSNIRYPDGEVFTG
# notes: KtrB, membrane protein of the KtrAB K+ transporter, Bacillus subtilis, GenBank KIX81591.1; In detergent (DDM or cymal-6), or reconstituted in E. coli polar lipid liposomes for the float-up; also called KtrB wt; wild-type KtrB; source: E. coli BL21(DE3), purified (DDM extraction, Talon resin, thrombin, Superdex-200); not shown: His tag, N-terminal, cleaved
# B3: KtrA (wild type), cytosolic RCK ring protein of the KtrAB K+ transporter from Bacillus subtilis (natural protein, UniProt O32080 1-222, looked up)
# chain: MGRIKNKQFAVIGLGRFGGSICKELHRMGHEVLAVDINEEKVNAYASYATHAVIANATEENELLSLGIRNFEYVIVAIGANIQASTLTTLLLKELDIPNIWVKAQNYYHHKVLEKIGADRIIHPEKDMGVKIAQSLSDENVLNYIDLSDEYSIVELLATRKLDSKSIIDLNVRAKYGCTILAIKHHGDICLSPAPEDIIREQDCLVIMGHKKDIKRFENEGM
# notes: KtrA, RCK domain protein of the KtrAB K+ transporter, Bacillus subtilis, GenBank KIX81590.1; eluted and kept with ADP or ATP; also called full-length KtrA; wild type KtrA; source: E. coli BL21(DE3), purified (anion exchange, ADP-agarose, Superdex-S200)
# Key:
# [1] = biological target: B2; assay: SEC; size-exclusion purified KtrB (wild type or mutant) mixed with an excess of KtrA (wild type, KtrAC0 or KtrAΔC), run in the presence of ATP or ADP, in detergent; SDS-PAGE of the fractions; conditions: both partners purified
# [2] = biological target: the molecule itself; assay: crystal structure; KtrAΔCB with bound ADP, data to 6 Å, molecular replacement, 4-fold and 8-fold averaging, DEN refinement; crystals from 100 mM Tris-HCl pH 8.5, 18%–22% PEG400, 100–200 mM CaCl2, 20°C
# [3] = biological target: the molecule itself; assay: crystal structure; wild-type KtrAB with ADP, 8 Å diffraction dataset; molecular replacement searches and an averaged map only (low resolution model); crystals from 100 mM Hepes pH 7.5, 1 M NaCl, 10% PEG4000, 20°C
binder,measurement,setting,value
B1,binding result,[1],binds
same,binding result,[2],binds
B2,stoichiometry N,[2],2
B3,binding result,[3],binds
same,binding result,[1],binds
